Assay results reported in publication PMC4772073.

Target: dUltramarine2
Test: SEC; gel filtration chromatography; conditions not given in the main text (Supplementary Fig. 7)

For dUltramarine2, the stoichiometry N was 2.
